Assay results as given in the supplement of paper PMC9112550, “Optimization of the antimicrobial peptide Bac7 by deep mutational scanning” (BMC Biology, 2022).

The sequences below were run on Escherichia coli TOP10 (assay: shrunken log2 fold change of peptide-encoding DNA abundance (4.5 h post-induction vs induction); higher = less antimicrobial activity (less host growth inhibition)). Details: time post-induction: 4.5 h; library: site-saturation at positions 5, 18, 19, 20.
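Further: peptides expressed intracellularly from a pBAD plasmid library in pooled LB shake-flask culture, induced with 0.3% L-arabinose, DNA abundance read by NGS, three biological replicates, DESeq2 with apeglm shrinkage.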

| Sequence | shrunken log2 fold change |
| --- | --- |
| RRIRERPPRLPRPRPRPTFEPRP | 0.144 |
| RRIRERPPRLPRPRPRPTFPPRP | -0.44 |
| RRIRERPPRLPRPRPRPTHCPRP | -0.115 |
| RRIRERPPRLPRPRPRPTIMPRP | -0.959 |
| RRIRERPPRLPRPRPRPTIVPRP | 0.03 |
| RRIRERPPRLPRPRPRPTLPPRP | 0.123 |
| RRIRERPPRLPRPRPRPTQSPRP | 0.329 |
| RRIRERPPRLPRPRPRPTSLPRP | -0.647 |
| RRIRERPPRLPRPRPRPTTFPRP | -0.367 |
| RRIRERPPRLPRPRPRPTVWPRP | 0.217 |
| RRIRERPPRLPRPRPRPTWQPRP | 0.0759 |
| RRIRERPPRLPRPRPRPTWRPRP | 0.268 |
| RRIRERPPRLPRPRPRPTYDPRP | -0.528 |
| RRIRERPPRLPRPRPRPTYIPRP | -1.02 |
| RRIRERPPRLPRPRPRPTYQPRP | -0.136 |
| RRIRERPPRLPRPRPRPTYRPRP | -0.0372 |
| RRIRERPPRLPRPRPRPVAVPRP | -0.0937 |
| RRIRERPPRLPRPRPRPVCSPRP | -0.239 |
| RRIRERPPRLPRPRPRPVDHPRP | -0.195 |
| RRIRERPPRLPRPRPRPVFAPRP | 0.181 |
| RRIRERPPRLPRPRPRPVFNPRP | -0.329 |
| RRIRERPPRLPRPRPRPVGKPRP | -0.309 |
| RRIRERPPRLPRPRPRPVGPPRP | -0.0231 |
| RRIRERPPRLPRPRPRPVHHPRP | -0.954 |
| RRIRERPPRLPRPRPRPVHTPRP | -0.00346 |

| Sequence | shrunken log2 fold change |
| --- | --- |
| RRIRERPPRLPRPRPRPVIAPRP | -0.205 |
| RRIRERPPRLPRPRPRPVIGPRP | -0.108 |
| RRIRERPPRLPRPRPRPVISPRP | -0.145 |
| RRIRERPPRLPRPRPRPVKIPRP | -0.181 |
| RRIRERPPRLPRPRPRPVKRPRP | 0.025 |
| RRIRERPPRLPRPRPRPVKTPRP | 0.0285 |
| RRIRERPPRLPRPRPRPVKVPRP | -0.205 |
| RRIRERPPRLPRPRPRPVLPPRP | -0.0942 |
| RRIRERPPRLPRPRPRPVMQPRP | 0.095 |
| RRIRERPPRLPRPRPRPVNMPRP | -0.139 |
| RRIRERPPRLPRPRPRPVPYPRP | -0.132 |
| RRIRERPPRLPRPRPRPVSAPRP | 0.148 |
| RRIRERPPRLPRPRPRPVTIPRP | -0.233 |
| RRIRERPPRLPRPRPRPVWKPRP | 0.00515 |
| RRIRERPPRLPRPRPRPVYAPRP | -0.288 |
| RRIRERPPRLPRPRPRPVYIPRP | -0.0234 |
| RRIRERPPRLPRPRPRPWAKPRP | -0.015 |
| RRIRERPPRLPRPRPRPWAQPRP | -0.0813 |
| RRIRERPPRLPRPRPRPWAVPRP | -0.0984 |
| RRIRERPPRLPRPRPRPWCAPRP | -0.158 |
| RRIRERPPRLPRPRPRPWDFPRP | 0.0275 |
| RRIRERPPRLPRPRPRPWDGPRP | 0.421 |
| RRIRERPPRLPRPRPRPWDPPRP | 0.173 |
| RRIRERPPRLPRPRPRPWEAPRP | 0.74 |
| RRIRERPPRLPRPRPRPWGQPRP | 0.115 |

| Sequence | shrunken log2 fold change |
| --- | --- |
| RRIRERPPRLPRPRPRPWHIPRP | -0.169 |
| RRIRERPPRLPRPRPRPWHNPRP | -0.344 |
| RRIRERPPRLPRPRPRPWIAPRP | -0.0555 |
| RRIRERPPRLPRPRPRPWIYPRP | 0.013 |
| RRIRERPPRLPRPRPRPWKEPRP | 0.0039 |
| RRIRERPPRLPRPRPRPWNSPRP | 0.0019 |
| RRIRERPPRLPRPRPRPWNWPRP | -0.131 |
| RRIRERPPRLPRPRPRPWPDPRP | -0.0169 |
| RRIRERPPRLPRPRPRPWQAPRP | 0.00281 |
| RRIRERPPRLPRPRPRPWRFPRP | -0.117 |
| RRIRERPPRLPRPRPRPWRGPRP | 0.166 |
| RRIRERPPRLPRPRPRPWVYPRP | -0.157 |
| RRIRERPPRLPRPRPRPWWHPRP | -0.523 |
| RRIRERPPRLPRPRPRPWWPPRP | -0.155 |
| RRIRERPPRLPRPRPRPWYGPRP | -1.02 |
| RRIRERPPRLPRPRPRPYDHPRP | -0.397 |
| RRIRERPPRLPRPRPRPYFIPRP | -1.17 |
| RRIRERPPRLPRPRPRPYGWPRP | -0.135 |
| RRIRERPPRLPRPRPRPYHFPRP | -0.177 |
| RRIRERPPRLPRPRPRPYHKPRP | -0.804 |
| RRIRERPPRLPRPRPRPYHPPRP | -0.248 |
| RRIRERPPRLPRPRPRPYIDPRP | -1.51 |
| RRIRERPPRLPRPRPRPYLAPRP | -0.225 |
| RRIRERPPRLPRPRPRPYLCPRP | -0.554 |
| RRIRERPPRLPRPRPRPYLEPRP | -0.271 |

| Sequence | shrunken log2 fold change |
| --- | --- |
| RRIRERPPRLPRPRPRPYLNPRP | -0.326 |
| RRIRERPPRLPRPRPRPYMMPRP | -0.259 |
| RRIRERPPRLPRPRPRPYPNPRP | -1.19 |
| RRIRERPPRLPRPRPRPYPSPRP | -0.967 |
| RRIRERPPRLPRPRPRPYQRPRP | -0.876 |
| RRIRERPPRLPRPRPRPYSNPRP | -0.905 |
| RRIRERPPRLPRPRPRPYSWPRP | -0.486 |
| RRIRERPPRLPRPRPRPYTAPRP | -0.662 |
| RRIRERPPRLPRPRPRPYWHPRP | -0.168 |
| RRIRERPPRLPRPRPRPYYHPRP | -1.58 |
| RRIRERPPRLPRPRPRPYYWPRP | -0.192 |
| RRIRFRPPRLPRPRPRPAAAPRP | 0.551 |
| RRIRFRPPRLPRPRPRPAAFPRP | -0.0126 |
| RRIRFRPPRLPRPRPRPAAMPRP | 1.58 |
| RRIRFRPPRLPRPRPRPAANPRP | 0.22 |
| RRIRFRPPRLPRPRPRPACYPRP | -0.066 |
| RRIRFRPPRLPRPRPRPADLPRP | -0.294 |
| RRIRFRPPRLPRPRPRPADVPRP | 0.258 |
| RRIRFRPPRLPRPRPRPAGNPRP | 0.135 |
| RRIRFRPPRLPRPRPRPAGRPRP | 0.294 |
| RRIRFRPPRLPRPRPRPAHLPRP | -0.0824 |
| RRIRFRPPRLPRPRPRPAHRPRP | 0.418 |
| RRIRFRPPRLPRPRPRPAKKPRP | 0.188 |
| RRIRFRPPRLPRPRPRPALCPRP | -0.088 |
| RRIRFRPPRLPRPRPRPALHPRP | -0.0349 |

| Sequence | shrunken log2 fold change |
| --- | --- |
| RRIRFRPPRLPRPRPRPALRPRP | 0.276 |
| RRIRFRPPRLPRPRPRPAMEPRP | 0.0126 |
| RRIRFRPPRLPRPRPRPAMIPRP | -0.397 |
| RRIRFRPPRLPRPRPRPANRPRP | -0.0406 |
| RRIRFRPPRLPRPRPRPASDPRP | -0.32 |
| RRIRFRPPRLPRPRPRPASGPRP | 0.206 |
| RRIRFRPPRLPRPRPRPASSPRP | -0.204 |
| RRIRFRPPRLPRPRPRPAVSPRP | -0.108 |
| RRIRFRPPRLPRPRPRPAWVPRP | 0.255 |
| RRIRFRPPRLPRPRPRPAYMPRP | -0.564 |
| RRIRFRPPRLPRPRPRPCFFPRP | -0.378 |
| RRIRFRPPRLPRPRPRPCFRPRP | -0.45 |
| RRIRFRPPRLPRPRPRPCGDPRP | -0.01 |
| RRIRFRPPRLPRPRPRPCGVPRP | 0.0327 |
| RRIRFRPPRLPRPRPRPCHAPRP | -0.193 |
| RRIRFRPPRLPRPRPRPCHDPRP | 0.236 |
| RRIRFRPPRLPRPRPRPCIAPRP | -0.166 |
| RRIRFRPPRLPRPRPRPCISPRP | -0.068 |
| RRIRFRPPRLPRPRPRPCKHPRP | -0.0872 |
| RRIRFRPPRLPRPRPRPCKRPRP | 0.0187 |
| RRIRFRPPRLPRPRPRPCMCPRP | -0.544 |
| RRIRFRPPRLPRPRPRPCMHPRP | -0.111 |
| RRIRFRPPRLPRPRPRPCMSPRP | -0.0366 |
| RRIRFRPPRLPRPRPRPCNIPRP | 0.0928 |
| RRIRFRPPRLPRPRPRPCPGPRP | -0.151 |

| Sequence | shrunken log2 fold change |
| --- | --- |
| RRIRFRPPRLPRPRPRPCPKPRP | 0.036 |
| RRIRFRPPRLPRPRPRPCPLPRP | -0.183 |
| RRIRFRPPRLPRPRPRPCPQPRP | -0.697 |
| RRIRFRPPRLPRPRPRPCPYPRP | -0.261 |
| RRIRFRPPRLPRPRPRPCQKPRP | 0.033 |
| RRIRFRPPRLPRPRPRPCQRPRP | -0.124 |
| RRIRFRPPRLPRPRPRPCRNPRP | -0.0376 |
| RRIRFRPPRLPRPRPRPCRQPRP | 0.229 |
| RRIRFRPPRLPRPRPRPCWCPRP | -0.00345 |
| RRIRFRPPRLPRPRPRPCWHPRP | -0.259 |
| RRIRFRPPRLPRPRPRPCWWPRP | 0.696 |
| RRIRFRPPRLPRPRPRPCYHPRP | -0.859 |
| RRIRFRPPRLPRPRPRPCYTPRP | -0.239 |
| RRIRFRPPRLPRPRPRPDARPRP | -0.0768 |
| RRIRFRPPRLPRPRPRPDCHPRP | -0.0405 |
| RRIRFRPPRLPRPRPRPDCIPRP | -0.349 |
| RRIRFRPPRLPRPRPRPDDDPRP | 0.114 |
| RRIRFRPPRLPRPRPRPDEHPRP | -0.0688 |
| RRIRFRPPRLPRPRPRPDGFPRP | 0.015 |
| RRIRFRPPRLPRPRPRPDGRPRP | 0.023 |
| RRIRFRPPRLPRPRPRPDGSPRP | -0.0167 |
| RRIRFRPPRLPRPRPRPDIPPRP | -0.634 |
| RRIRFRPPRLPRPRPRPDIYPRP | -0.0949 |
| RRIRFRPPRLPRPRPRPDKYPRP | -1.65 |
| RRIRFRPPRLPRPRPRPDLEPRP | -0.0811 |
